T1: phiCDKH01 XRE family repressor (XRE-His) (Clostridioides difficile phage phiCDKH01 (host strain CD34/Sr)), UPI000235AC6A
T1 sequence: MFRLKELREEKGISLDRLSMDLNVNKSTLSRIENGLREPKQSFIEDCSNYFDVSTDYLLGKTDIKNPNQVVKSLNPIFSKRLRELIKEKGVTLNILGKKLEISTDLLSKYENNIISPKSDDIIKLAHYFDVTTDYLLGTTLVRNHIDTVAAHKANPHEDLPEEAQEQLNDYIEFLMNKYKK

T2: phiCDKH01 XRE family repressor (XRE-His) (Clostridioides difficile phage …, UniProt UPI000235AC6A 1-181)
T2 sequence: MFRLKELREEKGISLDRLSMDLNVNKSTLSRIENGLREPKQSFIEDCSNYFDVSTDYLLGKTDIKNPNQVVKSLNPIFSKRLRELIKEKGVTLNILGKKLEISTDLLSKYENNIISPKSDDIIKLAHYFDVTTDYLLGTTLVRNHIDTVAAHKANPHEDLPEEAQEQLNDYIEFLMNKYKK


How the values were obtained:
[1] = test system: T1, phiCDKH01 XRE family repressor (XRE-His) (Clostridioides difficile phage phiCDKH01 (host strain CD34/Sr)), UPI000235AC6A; assay: EMSA; details: 50 mM Tris-HCl pH 7.5, 50 mM NaCl, 200 mM KCl, 50 mM MgCl2, 5 mM EDTA, 5 mM DTT, 0.25 mg/mL BSA, 15 min, room temperature, 0.1 pmol DNA, 0-200 ng protein
[2] = target: T2, phiCDKH01 XRE family repressor (XRE-His); assay: EMSA; 50 mM Tris-HCl pH 7.5, 50 mM NaCl, 200 mM KCl, 50 mM MgCl2, 5 mM EDTA, 5 mM DTT, 0.25 mg/mL BSA, 15 min, room temperature; 0.1 pmol DNA, 0-200 ng protein; 5% TBE gel; details: protein: recombinant; tag encoded at 3' end by primer S4); chain copies: 2; blunt

Molecule | binding [1] | binding result [2]
CATTATAGCAACTTTTATTTACATTATAGCAACTTTTTTTGTTATTACAATTAAAATTGCCAAAAAAGCAACAAAAATATTGACTTTTAACATTTTTGTTGCTATTATATAA (double strand) [S2] | binds | –
GCAACTTTTTTTGTTATTACAATTAAAATTGCCAAAAAAGCAACAAAAATATTGACTTTTAACATTTTTGTTGCTATTATATAAACAAGAACTTGCTTATATAGCAAAAAGTTAGAGGGTGA (double strand) [S3 (Methods text says S4)] | binds | –
GTTGCTATAATGTAAATAAAAGTTGCTATAATGAAAACTACAATAAAGGATGATTTTATATGTTTAGATTAAAAGAACTGAGAGAAG (double strand) [S1] | binds | –
BIND (minimal XRE-binding fragment) (dsDNA) DNA 1: TTACAATTAAAATTGCCAAAAAAGCAACAA DNA 2: TTGTTGCTTTTTTGGCAATTTTAATTGTAA | – | binds

From article PMC11172241, “Insight into the Mechanism of Lysogeny Control of phiCDKH01 Bacteriophage Infecting Clinical Isolate of Clostridioides difficile”
